Experimental data reported in patent US12072338B2, “Pharmaceutical peptides for the treatment of inflammatory diseases” (PROTAGONISTS LTD., priority 2007, dated 2024).

Columns and labels:
BCA-1 = biological target: T1, BCA-1 (Homo sapiens, UniProt O43927); experiment: Micro-array analysis of chemokine binding peptides: BCA-1
T1 construct: purchased 300-47
T1 sequence (O43927 23-109): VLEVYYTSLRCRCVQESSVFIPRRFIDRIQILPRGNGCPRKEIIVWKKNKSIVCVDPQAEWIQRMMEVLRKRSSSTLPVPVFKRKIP
Procedure: (§1) (1) Printing: Chemokine (CK) solution (in water) was serially diluted with Print Reagent (GenTel BioSurfaces USA) to final concentrations of 50 μg and 25 μg/ml. BSA/BSA-Biotin control solutions (in water) were diluted with Print Reagent to 100 μg/ml. Amplified stock of M13 phage control (M13KEgIII Cloning Vector, New England Biolabs, Cat.No.E8101S) was stored in Tris Buffered Saline (TBS; pH7.5, 4° C.) and diluted with Print Reagent to the working titre (10^8 pfu/μl). An automated spotting robot (16 pin print tool, 0.4 mm head; BioRobotics, UK) was used to print the CK/BSA control/M13 control, 5 repeats per sample (CK 25 μg/ml and 50 μg/ml; BSA 100 μg/ml; M13 20 μl), on PATH Protein Microarray Slides (GenTel, Prod.No. 2-1005/-1025) at […], and 50-70% relative humidity. Printed micro-array slides were stored at Room Temperature (RT) or 4° C. for at least 24 h before use.
(§2) (2) Blocking: Block Buffer (500 μl/partition; PATHblock, GenTel, Prod.No. 2-1014) was applied to the slide for 1 hour at room temp (RT). After removal of Block Buffer, the slide was air dried for 25 minutes;
(§3) (3) Phage Presented Peptide Binding: Amplified recombinant phage stock was stored in TBS and diluted with Wash Buffer to working titer (10^7 pfu/μl). Recombinant phage suspension (300 μl) was applied per partition and incubated at RT for 1 hour with gentle agitation.
(§4) (4) First Washing: The slides were washed twice with Wash Buffer 300 μl/partition).
(§5) (5) Primary Antibody (Ab) Labeling: The slides were incubated with the Primary Ab (1 mg/ml diluted ×2500 (Wash Reagent), 300 μl; Mouse Anti-M13 monoclonal Ab; Amersham Biosciences, UK; Product Code 27-9420-01) for 45 minutes at RT.
(§6) (6) Second Washing: The slides were washed twice with Wash Buffer (300 μl/partition).
(§7) (7) Secondary Ab Labeling: The slides were incubated with Secondary Ab (1.5 mg/ml diluted ×5000 (Wash Reagent), 300 μl; Cy3-conjugated AffiniPure Goat Anti-Mouse IgG; Jackson ImmunoReserch Labs, USA; Product Code 115-165-062).
(§8) (8) Third Washing: The slides were washed twice with Wash Buffer (300 μl/partition).
(§9) (9) Rinse: the slides were rinsed twice with Rinse Buffer (PATHrinse, GenTel, Prod.No. 2-1018) then dried well.
(§10) (10) Scanning: The peptide-bound, labeled slide was scanned (Laser Intensity 80%, Gain 80%, Resolution 10 μm) with a ScanArray Life Scanner (Packard BioChip Technologies, USA).
(§11) (11) Analysis: Quantitative analysis of micro-array was performed by the SpotReader program of Niles Scientific (USA) and presented as Relative Fluorescence (RF) as a function of CK concentration. Micro-array readout (Cy3 fluorescence) was quantified to determine the relative binding affinities of a CBP for the CKs and by inference, the specificity of the CBP for binding to a CK.

SDF1-β = biological target: T2, SDF1-β (Homo sapiens, UniProt P48061); experiment: Micro-array analysis of chemokine binding peptides: SDF1-β
T2 construct: purchased 300-28b
Procedure: as §1, §2, §3, §4, §5, §6, §7, §8, §9, §10, §11

TECK = biological target: T3, TECK (Homo sapiens, UniProt O15444); experiment: Micro-array analysis of chemokine binding peptides: TECK
T3 construct: purchased 300-45
T3 sequence (O15444 24-150): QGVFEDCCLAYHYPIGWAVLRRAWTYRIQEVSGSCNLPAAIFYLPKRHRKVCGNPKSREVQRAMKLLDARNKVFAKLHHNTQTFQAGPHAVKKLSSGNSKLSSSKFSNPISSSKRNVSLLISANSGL
Procedure: as §1, §2, §3, §4, §5, §6, §7, §8, §9, §10, §11

Eotaxin 3 = biological target: T4, Eotaxin 3 (Homo sapiens, UniProt Q9Y258); experiment: Micro-array analysis of chemokine binding peptides: Eotaxin 3
T4 construct: purchased 300-48
T4 sequence (Q9Y258 24-94): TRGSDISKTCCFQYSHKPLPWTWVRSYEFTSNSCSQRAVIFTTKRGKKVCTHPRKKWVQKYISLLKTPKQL
Procedure: as §1, §2, §3, §4, §5, §6, §7, §8, §9, §10, §11

Eotaxin = biological target: T5, Eotaxin (Homo sapiens, UniProt P51671); experiment: Micro-array analysis of chemokine binding peptides: Eotaxin
T5 construct: purchased 300-21
Procedure: as §1, §2, §3, §4, §5, §6, §7, §8, §9, §10, §11

I-309 = biological target: T6, I-309 (Homo sapiens, UniProt P22362); experiment: Micro-array analysis of chemokine binding peptides: I-309
T6 construct: purchased 300-37
T6 sequence (P22362 24-96): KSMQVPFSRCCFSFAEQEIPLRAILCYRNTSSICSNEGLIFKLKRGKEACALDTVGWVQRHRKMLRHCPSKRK
Procedure: as §1, §2, §3, §4, §5, §6, §7, §8, §9, §10, §11

Mig = biological target: T7, Mig (Homo sapiens, UniProt Q07325); experiment: Micro-array analysis of chemokine binding peptides: Mig
T7 construct: purchased 300-26
T7 sequence (Q07325 23-125): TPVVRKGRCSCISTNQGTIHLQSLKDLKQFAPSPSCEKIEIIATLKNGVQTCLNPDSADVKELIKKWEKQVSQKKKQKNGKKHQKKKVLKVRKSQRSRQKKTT
Procedure: as §1, §2, §3, §4, §5, §6, §7, §8, §9, §10, §11

Lymphotactin = biological target: T8, Lymphotactin (Homo sapiens, UniProt P47992); experiment: Micro-array analysis of chemokine binding peptides: Lymphotactin
T8 construct: purchased 300-20
T8 sequence (P47992 22-114): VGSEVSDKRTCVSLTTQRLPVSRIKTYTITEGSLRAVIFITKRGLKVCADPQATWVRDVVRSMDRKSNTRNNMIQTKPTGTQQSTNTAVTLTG
Procedure: as §1, §2, §3, §4, §5, §6, §7, §8, §9, §10, §11

MCP-2 = biological target: T9, MCP-2 (Homo sapiens, UniProt P80075); experiment: Micro-array analysis of chemokine binding peptides: MCP-2; conditions: limit = start of the upper 75% of that peptide's response range
T9 construct: purchased 300-15
T9 sequence (P80075 24-99): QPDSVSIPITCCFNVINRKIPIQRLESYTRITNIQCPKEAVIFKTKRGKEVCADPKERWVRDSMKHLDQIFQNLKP
Procedure: as §1, §2, §3, §4, §5, §6, §7, §8, §9, §10, §11

I-TAC = biological target: T10, I-TAC (Homo sapiens, UniProt O14625); experiment: Micro-array analysis of chemokine binding peptides: I-TAC
T10 construct: purchased 300-46
T10 sequence (O14625 22-94): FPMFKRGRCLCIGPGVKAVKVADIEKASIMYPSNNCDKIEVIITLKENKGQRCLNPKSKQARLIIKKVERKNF
Procedure: as §1, §2, §3, §4, §5, §6, §7, §8, §9, §10, §11

IP-10 = biological target: T11, IP-10 (Homo sapiens, UniProt P02778); experiment: Micro-array analysis of chemokine binding peptides: IP-10
T11 construct: purchased 300-12
T11 sequence (P02778 22-98): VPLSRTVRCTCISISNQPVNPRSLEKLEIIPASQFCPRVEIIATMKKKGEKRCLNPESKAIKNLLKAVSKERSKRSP
Procedure: as §1, §2, §3, §4, §5, §6, §7, §8, §9, §10, §11

MCP-4 = biological target: T12, MCP-4 (Homo sapiens, UniProt Q99616); experiment: Micro-array analysis of chemokine binding peptides: MCP-4; conditions: limit = start of the upper 75% of that peptide's response range
T12 construct: purchased 300-24
Procedure: as §1, §2, §3, §4, §5, §6, §7, §8, §9, §10, §11

[1] = tested on: Adjuvant-Induced Arthritis (AIA) rats; experiment: Adjuvant Induced Arthritis (AIA) rat model, Clinical Score; assay type: in vivo; conditions: 25 μg IP on days 7-18
Procedure: Peptides were tested in a rat model of AIA for their anti-inflammatory effects.
Disease Induction: AIA was induced in female Lewis rats aged 7-8 weeks by injection of heat-killed Mycobacerioum tuberculosis (Mt strain H37Ra, Difco Laboratories, USA) dispersed in incomplete Freund's adjuvant to a final concentration of 10 mg/ml (100 μl) at the base of the tail on day 0.
Measurement: Clinical Score (CS, 0-4) for each limb based on (a) joint inflammation, (b) redness, (c) deformity.
Efficacy Protocol 1 (5 rats per group). Peptide/control compound was injected intra-peritoneally (IP, 200 μl) on days 7-11 and 14-18.
Rats were sacrificed (CO2 inhalation) on day 43.
Efficacy Protocol 2 (8 rats per group). Group 1: peptide/PBS was injected intra-peritoneally (IP, 200 μl) on days 7-18; Group 2: PBS was injected IP on days 7-18; Group 3: Dexamethasone (Dexa) was injected IP on days 11 (Clinical Score (CS)1) and 13. Rats were sacrificed on day 43.
Combination Efficacy Protocol 1 (8 rats per group). Group 1: peptide injected IP on days 7-18; Group 2: PBS injected IP on days 7-18; Group 3: Dexa injected IP on day 11 (CS 1) and day 13; Group 4: Dexa injected IP on days 11 and 13 then peptide injected on days 14-22; Group 5: Dexa injected IP on days 11 and 13 then PBS injected on days 14-22.
(§12) Combination Efficacy Protocol 2 (8 rats per group). Group 1: peptide injected IP on days 7-18; Group 2: PBS injected IP on days 7-18; Group 3: Dexa injected IP on day 11 (CS 1) and day 13 then PBS on days 14-22; Group 4: PBS injected IP on days 7-10,12,14; Dexa injected on days 11, 13. Peptide injected on days 15-19.
as §12, with “Protocol 3” for “Protocol 2”, “4: peptide” for “4: PBS”
Control Reagents for Adjuvant Induced Arthritis: Anti-Inflammatory Control: Dexamethasone Sodium Phosphate (Dexacort Forte, Teva) was dissolved in Phosphate Buffer Saline (PBS, GIBCO) to a final concentration of 1 mg/ml and injected in 200 μl (200 μg).
Negative Control: Phosphate Buffer Saline (PBS).

IL-8 = experiment: Micro-array analysis of chemokine binding peptides: IL-8; conditions: limit = start of the upper 75% of that peptide's response range
Procedure: as §1, §2, §3, §4, §5, §6, §7, §8, §9, §10, §11

Fractalkine = biological target: T13, Fractalkine (Homo sapiens, UniProt P78423); experiment: Micro-array analysis of chemokine binding peptides: Fractalkine
T13 construct: purchased 300-31
T13 sequence (P78423 25-100 limits assumed): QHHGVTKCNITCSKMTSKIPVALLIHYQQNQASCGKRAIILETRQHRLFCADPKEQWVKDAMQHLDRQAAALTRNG
Procedure: as §1, §2, §3, §4, §5, §6, §7, §8, §9, §10, §11

[2] = limit = start of the upper 75% of that peptide's response range

T12 sequence (Q99616 17-98): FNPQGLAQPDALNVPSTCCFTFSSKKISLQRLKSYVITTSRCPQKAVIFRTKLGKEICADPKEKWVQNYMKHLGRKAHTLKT
T2 sequence (P48061 22-93): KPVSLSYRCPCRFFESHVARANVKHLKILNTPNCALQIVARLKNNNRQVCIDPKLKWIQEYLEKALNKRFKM
T5 sequence (P51671 24-97): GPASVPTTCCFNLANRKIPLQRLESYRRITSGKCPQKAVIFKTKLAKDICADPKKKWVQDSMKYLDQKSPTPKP
IL-8, sequence (P10145 28-99 limits assumed): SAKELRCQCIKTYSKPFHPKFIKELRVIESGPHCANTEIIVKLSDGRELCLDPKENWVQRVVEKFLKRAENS

Sequence | binding to BCA-1, stated in words (BCA-1) | binding to SDF1-β, stated in words (SDF1-β) | binding to TECK, stated in words (TECK) | binding to Eotaxin 3, stated in words (Eotaxin 3) | binding to Eotaxin, stated in words (Eotaxin) | binding to I-309, stated in words (I-309) | binding to Mig, stated in words (Mig) | binding to Lymphotactin, stated in words (Lymphotactin) | binding to MCP-2 with relatively high affinity (Relative Fluorescence Units) (MCP-2) | binding to I-TAC, stated in words (I-TAC) | binding to IP-10, stated in words (IP-10) | binding to MCP-4 with relatively high affinity (Relative Fluorescence Units) (MCP-4) | maximal anti-inflammatory effect [1] | binding to IL-8 with relatively high affinity (Relative Fluorescence Units) (IL-8) | binding to Eotaxin 3 with relatively high affinity (Relative Fluorescence Units) (Eotaxin 3; [2]) | binding to I-309 with relatively high affinity (Relative Fluorescence Units) (I-309; [2]) | binding to Mig with relatively high affinity (Relative Fluorescence Units) (Mig; [2]) | binding to I-TAC with relatively high affinity (Relative Fluorescence Units) (I-TAC; [2]) | binding to Fractalkine, stated in words (Fractalkine)
WVFGNAACK [Ph-p8.7] | bound | bound | bound | bound | bound | bound | bound | bound | > 15,000 RFU | bound | bound | > 15,000 RFU |  |  |  |  |  |  | 
WVFGNMICK [P8 Rat] |  |  |  |  |  |  |  |  |  |  |  |  | 40% |  |  |  |  |  | 
WVFGVHFCK [Ph-p8.77] | bound | bound | bound |  |  |  |  |  | > 15,000 RFU |  |  | > 15,000 RFU | 23% | > 15,000 RFU | > 15,000 RFU | > 15,000 RFU | > 15,000 RFU | > 15,000 RFU | bound
